Data set [1] has as its target T1, MutS-IAANS (MutS-C42A/M88C) (Thermus aquaticus (printed as T. …, UniProt Q56215 1-811, C42A;M88C)).
T1 sequence: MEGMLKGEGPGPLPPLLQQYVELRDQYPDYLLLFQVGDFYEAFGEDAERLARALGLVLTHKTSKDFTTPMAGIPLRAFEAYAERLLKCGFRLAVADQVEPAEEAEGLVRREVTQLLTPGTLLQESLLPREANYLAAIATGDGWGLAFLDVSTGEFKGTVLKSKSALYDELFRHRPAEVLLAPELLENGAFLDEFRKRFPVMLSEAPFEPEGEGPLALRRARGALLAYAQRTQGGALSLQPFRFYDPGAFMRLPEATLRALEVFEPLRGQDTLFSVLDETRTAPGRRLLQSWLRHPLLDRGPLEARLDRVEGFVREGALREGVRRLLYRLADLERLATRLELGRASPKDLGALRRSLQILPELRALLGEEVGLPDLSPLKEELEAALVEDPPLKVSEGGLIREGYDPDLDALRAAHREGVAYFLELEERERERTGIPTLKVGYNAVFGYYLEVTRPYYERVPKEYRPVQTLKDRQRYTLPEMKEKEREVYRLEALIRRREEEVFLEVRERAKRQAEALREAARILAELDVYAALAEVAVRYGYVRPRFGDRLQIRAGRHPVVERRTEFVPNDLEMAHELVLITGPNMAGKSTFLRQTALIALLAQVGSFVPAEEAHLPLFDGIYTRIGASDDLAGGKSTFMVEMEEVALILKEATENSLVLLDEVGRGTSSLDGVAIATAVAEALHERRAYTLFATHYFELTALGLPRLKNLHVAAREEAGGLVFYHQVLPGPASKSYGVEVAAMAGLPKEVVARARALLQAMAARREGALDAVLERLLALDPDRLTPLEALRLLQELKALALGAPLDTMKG
In words: IAANS fluorescence quenching, equilibrium.

Data set [2] addresses T1, MutS-IAANS (MutS-C42A/M88C). The experiment in a line: stopped-flow IAANS fluorescence.
In another data set the target is T2, MutS-F39A-IAANS (Thermus aquaticus (printed as T. …, UniProt Q56215 1-811, F39A;C42A;M88C)).
T2 sequence: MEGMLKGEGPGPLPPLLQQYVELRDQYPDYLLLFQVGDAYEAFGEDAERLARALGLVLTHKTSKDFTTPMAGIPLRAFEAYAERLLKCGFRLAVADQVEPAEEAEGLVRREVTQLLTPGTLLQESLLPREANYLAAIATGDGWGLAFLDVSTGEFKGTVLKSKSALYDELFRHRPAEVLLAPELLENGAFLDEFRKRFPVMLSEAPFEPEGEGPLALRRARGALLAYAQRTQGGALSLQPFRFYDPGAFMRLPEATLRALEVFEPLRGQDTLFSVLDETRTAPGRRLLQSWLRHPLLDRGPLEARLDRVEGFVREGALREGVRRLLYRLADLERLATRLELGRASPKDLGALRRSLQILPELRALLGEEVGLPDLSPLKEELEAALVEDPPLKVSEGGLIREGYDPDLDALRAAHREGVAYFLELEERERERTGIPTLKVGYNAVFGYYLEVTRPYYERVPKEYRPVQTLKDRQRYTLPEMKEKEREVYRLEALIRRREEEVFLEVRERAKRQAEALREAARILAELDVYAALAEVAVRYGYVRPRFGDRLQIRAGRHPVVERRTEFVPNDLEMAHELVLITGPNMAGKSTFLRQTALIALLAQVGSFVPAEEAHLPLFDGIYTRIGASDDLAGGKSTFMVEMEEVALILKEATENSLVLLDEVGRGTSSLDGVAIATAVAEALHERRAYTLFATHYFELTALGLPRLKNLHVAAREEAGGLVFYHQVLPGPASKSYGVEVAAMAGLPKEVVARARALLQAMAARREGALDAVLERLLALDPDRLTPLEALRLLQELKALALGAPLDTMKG
The experiment in a line: IAANS fluorescence quenching, equilibrium and stopped-flow.

The next data set concerns the target T3, MutS-F39A (Thermus aquaticus (printed as T. …, UniProt Q56215 1-811, F39A)).
T3 sequence: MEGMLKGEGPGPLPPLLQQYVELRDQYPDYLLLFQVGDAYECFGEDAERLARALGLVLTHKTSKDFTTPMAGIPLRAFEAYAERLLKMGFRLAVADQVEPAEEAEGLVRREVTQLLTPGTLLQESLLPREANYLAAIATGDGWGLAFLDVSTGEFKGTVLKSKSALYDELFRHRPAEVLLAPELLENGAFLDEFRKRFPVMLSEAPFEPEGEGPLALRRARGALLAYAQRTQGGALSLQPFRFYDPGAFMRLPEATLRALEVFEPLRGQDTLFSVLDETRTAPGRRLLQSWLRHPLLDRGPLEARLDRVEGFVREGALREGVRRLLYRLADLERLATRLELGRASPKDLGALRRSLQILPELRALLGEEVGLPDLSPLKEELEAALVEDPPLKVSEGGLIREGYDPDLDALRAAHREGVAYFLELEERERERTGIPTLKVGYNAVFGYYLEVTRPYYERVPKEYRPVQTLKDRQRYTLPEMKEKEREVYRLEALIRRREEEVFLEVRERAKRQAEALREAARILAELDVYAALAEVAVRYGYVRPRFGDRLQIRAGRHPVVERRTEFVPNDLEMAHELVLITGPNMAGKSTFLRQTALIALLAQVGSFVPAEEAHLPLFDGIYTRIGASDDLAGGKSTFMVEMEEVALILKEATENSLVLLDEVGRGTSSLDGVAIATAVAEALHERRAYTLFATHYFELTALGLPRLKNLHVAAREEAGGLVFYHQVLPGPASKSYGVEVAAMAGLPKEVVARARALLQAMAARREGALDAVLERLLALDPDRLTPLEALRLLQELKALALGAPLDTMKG
The experiment in a line: fluorescence anisotropy, equilibrium. (In fluorescence polarisation assays a small probe gives low polarisation when free and higher when bound to something large.)

Data set [3] concerns the target T4, MutS (wild type) (Thermus aquaticus (printed as T. …, UniProt Q56215 1-811)).
T4 sequence: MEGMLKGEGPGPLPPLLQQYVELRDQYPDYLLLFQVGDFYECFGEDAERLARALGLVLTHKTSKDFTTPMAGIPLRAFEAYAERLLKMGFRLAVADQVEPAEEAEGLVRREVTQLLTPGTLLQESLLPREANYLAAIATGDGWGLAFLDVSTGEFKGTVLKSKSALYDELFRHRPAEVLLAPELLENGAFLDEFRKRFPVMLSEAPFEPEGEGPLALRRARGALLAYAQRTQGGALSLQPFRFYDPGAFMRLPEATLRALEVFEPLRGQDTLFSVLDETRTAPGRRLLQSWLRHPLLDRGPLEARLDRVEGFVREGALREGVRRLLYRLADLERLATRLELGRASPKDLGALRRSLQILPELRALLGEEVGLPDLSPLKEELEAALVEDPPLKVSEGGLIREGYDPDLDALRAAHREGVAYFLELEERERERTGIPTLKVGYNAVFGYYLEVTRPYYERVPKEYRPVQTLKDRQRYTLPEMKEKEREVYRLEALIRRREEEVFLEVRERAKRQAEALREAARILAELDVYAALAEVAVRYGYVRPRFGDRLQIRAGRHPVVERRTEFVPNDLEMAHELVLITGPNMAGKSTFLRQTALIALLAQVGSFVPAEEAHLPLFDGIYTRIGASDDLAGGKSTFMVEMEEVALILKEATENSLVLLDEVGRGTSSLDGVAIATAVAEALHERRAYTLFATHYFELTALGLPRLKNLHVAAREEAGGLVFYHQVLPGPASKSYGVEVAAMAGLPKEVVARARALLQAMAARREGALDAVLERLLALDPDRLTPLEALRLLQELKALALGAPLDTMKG
The experiment in a line: fluorescence anisotropy, equilibrium.

The target of data set [4] is T4, MutS (wild type). In words: stopped-flow fluorescence anisotropy.

Here are results for two molecules from PMC3812353.

Broadly, the Kd is the equilibrium constant for the complex coming apart.

B1: DNA(+T) (dsDNA)
DNA 1: ATGTGAATCAGTATGGTATATATCTGCTGAAGGAAAT
DNA 2: ATTTCCTTCAGCAGATATTACCATACTGATTCACAT
In turn, B1 gave a Kd in data set [1] of 0.022 ± 0.004 µM. Besides, the “apparent K (half saturation)” value in data set [2] amounted to 2300 ± 700 nM. Besides, the binding result with MutS-F39A-IAANS is reported as “no binding”.

B2: DNA(+T)TAMRA (dsDNA)
DNA 1: ATGTGAATCAGTATGGTATATATCTGCTGAAGGAAAT
DNA 2: ATTTCCTTCAGCAGATATTACCATACTGATTCACAT
modifications: 3' amino linker
For the molecule B2, the binding result with MutS-F39A was “no binding”. Besides, the Kd with MutS (wild type) [3] came out at 0.013 ± 0.002 µM. The “apparent K (half saturation)” value with MutS (wild type) [4] is 5 ± 2 µM.
